Patent US20080242590A1, “New Method 706” (ASTRAZENECA AB, priority 2007, published 2008)

Test system: Aβ 1-42
Test: Degradation of Aβ 1-42 in APPswe-tg mouse plasma pool (Example 28)
Type: biochemical
Conditions: room temperature, 1 hour
Procedure: Mouse plasma collected from 9 animals was stored at −70° C. Plasma was thawed and pooled just before the experiment. Aβ 1-40 and 1-42 in plasma pool was degraded by human Fc-Nep or mouse Fc-Nep with corresponding vehicles (50 mM Tris-HCl, 150 mM NaCl pH 7.5). The following final concentrations of the Fc-Nep constructs were used, 100, 32, 10, 3.2, 1, 0.3, 0.1 and […] and the degradation occurred at room temperature for 1 hour while shaking on an orbital shaker. The enzymatic reaction was stopped by adding Phosphoramidone (10 μM final concentration).
After degradation, a final concentration of 4.7 mM EDTA was added to the tg-mouse plasma tubes and the plasma samples were diluted 3 times in sample diluent, before the concentration of Aβ42 was analyzed using ELISA kit Innotest® β-Amyloid1-42 (Innogenetics, lot#177462, ref#80177) according to the manufacturers instructions. The highest concentration (100 μg/ml) of human Fc-Nep and mouse Fc-Nep degraded human plasma amyloid β 1-40 by 71% and 77%, respectively and Aβ 1-42 by 34% and 53%, respectively, as compared to plasma without Fc-Nep treatment.

B1: Fc-Neprilysin: extracellular domain of human Neprilysin fused to the human IgG2 Fc domain (including hinge), Fc at N-terminus; SEQ ID NO 11 (protein)
chain: ERKCCVECPPCPAPPVAGPSVFLFPPKPKDTLMISRTPEVTCVVVDVSHEDPEVQFNWYVDGVEVHNAKTKPREEQFNSTFRVVSVLTVVHQDWLNGKEYKCKVSNKGLPAPIEKTISKTKGQPREPQVYTLPPSREEMTKNQVSLTCLVKGFYPSDIAVEWESNGQPENNYKTTPPMLDSDGSFFLYSKLTVDKSRWQQGNVFSCSVMHEALHNHYTQKSLSLSPGKYDDGICKSSDCIKSAARLIQNMDATTEPCTDFFKYACGGWLKRNVIPETSSRYGNFDILRDELEVVLKDVLQEPKTEDIVAVQKAKALYRSCINESAIDSRGGEPLLKLLPDIYGWPVATENWEQKYGASWTAEKAIAQLNSKYGKKVLINLFVGTDDKNSVNHVIHIDQPRLGLPSRDYYECTGIYKEACTAYVDFMISVARLIRQEERLPIDENQLALEMNKVMELEKEIANATAKPEDRNDPMLLYNKMTLAQIQNNFSLEINGKPFSWLNFTNEIMSTVNISITNEEDVVVYAPEYLTKLKPILTKYSARDLQNLMSWRFIMDLVSSLSRTYKESRNAFRKALYGTTSETATWRRCANYVNGNMENAVGRLYVEAAFAGESKHVVEDLIAQIREVFIQTLDDLTWMDAETKKRAEEKALAIKERIGYPDDIVSNDNKLNNEYLELNYKEDEYFENIIQNLKFSQSKQLKKLREKVDKDEWISGAAVVNAFYSSGRNQIVFPAGILQPPFFSAQQSNSLNYGGIGMVIGHEITHGFDDNGRNFNKDGDLVDWWTQQSASNFKEQSQCMVYQYGNFSWDLAGGQHLNGINTLGENIADNGGLGQAYRAYQNYIKKNGEEKLLPGLDLNHKQLFFLNFAQVWCGTYRPEYAVNSIKTDVHSPGNFRIIGTLQNSAEFSEAFHCRKNSYMNPEKKCRVW
Highest concentration 100 μg/ml
  Degradation of Aβ 1-42 compared to plasma without treatment: 34%
  EC50: 1.3 µM
